Where no end group is shown, it is not given here.

Data on 2 molecules can be found in PMC12500691 (Frontiers in Cellular and Infection Microbiology, 2025).

Assay [1] deals with T1, SARS-CoV-2 ORF7a (SARS-CoV-2 (Wuhan variant), UniProt P0DTC7 16-96).
T1 construct: also called open reading frame 7a; accessory protein ORF7a; not shown: twin strep tag, N-terminal, kept
T1 sequence: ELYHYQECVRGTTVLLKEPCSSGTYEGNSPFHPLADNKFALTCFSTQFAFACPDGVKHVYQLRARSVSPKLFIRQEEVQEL
In words: SPR. The settings on record: both partners purified.

For assay [2], the target named is T2, SARS-CoV-2 ORF8 (SARS-CoV-2 (Wuhan variant), UniProt P0DTC8 16-121).
T2 construct: also called open reading frame 8; accessory protein ORF8; not shown: twin strep tag, N-terminal, kept
T2 sequence (P0DTC8 16-121): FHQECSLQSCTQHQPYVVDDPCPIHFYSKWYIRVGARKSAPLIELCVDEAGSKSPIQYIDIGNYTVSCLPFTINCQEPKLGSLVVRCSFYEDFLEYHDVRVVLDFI
In words: negative stain electron microscopy. Particulars: both partners purified.

B1: LL-37 (peptide)
peptide: LLGDFFRKSKEKIGKEFKRIVQRIKDFLRNLVPRTES
notes: also called synthetic LL-37; human antimicrobial peptide LL-37; source: synthetic peptide, bought: Invivogen
As a reminder, the Kd is the free concentration of one partner at which half of the binding sites on the other are occupied at equilibrium, for simple one-to-one binding. B1 displayed a Kd in assay [1] of 0.138 µM.

B2: gold-labeled LL-37 (peptide)
peptide: B1 peptide
modifications: also: directly conjugated with colloidal gold
notes: also called LL-37 directly conjugated with colloidal gold; source: synthetic peptide, bought: Invivogen; conjugated with colloidal gold
As a reminder, the stoichiometry N is a count of units in the complex or per binding partner. For B2, in assay [2], the “stoichiometry N” value was found to be 1.
